In test [1] the target is T1, recombinant WNV E protein containing only DIII (West Nile virus, UniProt Q9Q6P4 586-694).
T1 construct: domain: DIII
T1 sequence: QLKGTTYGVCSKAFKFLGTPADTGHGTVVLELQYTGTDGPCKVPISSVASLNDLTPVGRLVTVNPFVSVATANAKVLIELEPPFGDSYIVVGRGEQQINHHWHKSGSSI
The test can be described thus: ELISA on plate-coated recombinant DIII. For orientation: ELISA stands for enzyme-linked immunosorbent assay.

The target of test [2] is T2, West Nile virus E protein T64Q variant on RVPs (West Nile virus (WNV1 NY99 strain), UniProt Q9Q6P4 291-791, T64Q).
T2 sequence (looked up): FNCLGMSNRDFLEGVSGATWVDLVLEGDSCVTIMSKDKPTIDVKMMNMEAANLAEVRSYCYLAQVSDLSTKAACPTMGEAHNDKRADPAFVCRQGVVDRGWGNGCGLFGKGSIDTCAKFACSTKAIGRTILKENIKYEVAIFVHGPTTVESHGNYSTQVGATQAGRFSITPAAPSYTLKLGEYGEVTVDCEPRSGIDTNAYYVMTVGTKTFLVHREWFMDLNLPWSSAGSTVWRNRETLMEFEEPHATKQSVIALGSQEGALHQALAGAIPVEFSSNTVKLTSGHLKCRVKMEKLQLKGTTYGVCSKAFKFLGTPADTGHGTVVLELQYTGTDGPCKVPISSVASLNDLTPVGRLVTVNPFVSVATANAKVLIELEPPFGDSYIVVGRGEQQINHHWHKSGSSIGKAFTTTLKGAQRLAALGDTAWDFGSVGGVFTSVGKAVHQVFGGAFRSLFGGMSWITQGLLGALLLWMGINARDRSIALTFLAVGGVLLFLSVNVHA
The test can be described thus: cell-based or functional assay.

Test [3] deals with T3, West Nile virus E protein T208K variant on RVPs (West Nile virus (WNV1 NY99 strain), UniProt Q9Q6P4 291-791, T208K).
T3 sequence (looked up): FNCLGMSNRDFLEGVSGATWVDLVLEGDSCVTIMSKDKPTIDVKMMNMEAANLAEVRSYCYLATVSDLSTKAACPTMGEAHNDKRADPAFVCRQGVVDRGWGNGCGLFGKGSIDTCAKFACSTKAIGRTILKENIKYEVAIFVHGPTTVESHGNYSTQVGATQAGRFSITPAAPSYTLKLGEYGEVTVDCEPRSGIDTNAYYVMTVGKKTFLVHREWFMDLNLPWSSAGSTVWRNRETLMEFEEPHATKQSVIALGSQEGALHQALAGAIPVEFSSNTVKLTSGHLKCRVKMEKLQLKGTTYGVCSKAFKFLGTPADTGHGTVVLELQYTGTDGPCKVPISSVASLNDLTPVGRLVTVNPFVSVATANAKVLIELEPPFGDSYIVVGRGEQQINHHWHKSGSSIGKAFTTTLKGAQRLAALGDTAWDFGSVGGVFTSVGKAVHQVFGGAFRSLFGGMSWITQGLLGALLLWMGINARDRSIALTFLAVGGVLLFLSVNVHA
The test can be described thus: cell-based or functional assay.

B1: human mAb WNV-10 (antibody, V domains shown)
VH: QVQLVESGGGVVQPGRSLRLSCAASGFTFSSHAMHWVRQAPGKGLEWVAVISYDIINEYYADSVKGRFTISRDNSKNTLYLQMNSLRAEDTAVYYCARDGYFPNSSGEGFFDYWGQGTLVTVSS
VL: EIVMTQSPATLSVSPGERATLSCRASQSLSNNLAWYQQKPGQAPRLLIYGASTRATGIPARFSGSGSGTQFTLTISSLQSEDIAVYYCQQFNNWPWTFGQGTKVEIK
With B1, the binding result in test [1] was “no binding”.

B2: human mAb WNV-86 (antibody, V domains shown)
VH: QVQLVQSGGGLVQPGRSLRLCCAASGFSFDDFAMHWVRQAPGKGLEWVSGINWNSGHIGYADSVKGRFTISRDNAKNSLCLQMNSLRPEDTALYYCAKDRAYYFGSGTSGGAFDVWGQGTLVTVSS
VL: DIVMTQSPSSLSASVGDRVTITCRASQNIISYLNWYQQKPGKAPKLLIYDASSLQSGVPSRFSGSGSGTDFTLTISSLQPEDFATYYCQRSFSTPLTFGGGTKVEIK
As for B2, the “fold increase in neutralization IC50 relative to WT RVPs” value in test [2] amounted to 88 fold; in test [3] it was 13 fold.

B3: human mAb WNV-57 (antibody, V domains shown)
VH: QVQLVESGGGVVQPGRSLRLACAASGFTLSDFAIHWVRQAPGKGLEWVAIISYDGNIKYYADSVKGRFTISSDNSKNTVYLQMNSLRAEDTAMYYCARDPDVVETAHDAFDIWGQGTLVTVSS
VL: DILMTQSPSSLSASVGDRVTITCRASQNIKNYLNWYQQKPGKAPKLLIYAASSLQSLVPSRFSGSGSGTDFTLTISSLQPEDFATYYCQQSYSSFRTFGQGTKVEVK
On to B3, for which the binding result in test [1] is listed as “no binding”.

B4: human mAb WNV-62 (antibody, V domains shown)
VH: QVQLVESGGGVVQPGRSLRLSCAASGFTFSSYGMHWVRQAPGKGLEWVAVMSYDGSKIYYADSVKGRFTISRDNSKNTLYLQMDSLRAEDTAVYYCAKVGYYDGSRYDLIAEYFQYWGQGTLVTVSS
VL: QSVLTQPPSVSGAAGQRVTISCTGSSSNIGAGYDVHWYQQLPGTAPKLLIYGNNNRPSGVPDRFSGSKSDTSASLAITGLRPEDELDYYCQSYDNRLSAYVFGTGTKVTVL
In the case of B4, the binding result in test [1] is given as “no binding”.

The values are drawn from patent US12024555 (VANDERBILT UNIVERSITY, dated 2024).
